Test results from patent US20250074974A1 (KANAPH THERAPEUTICS, published 2025).

B1: PRO242 (bispecific antibody, IgG1)
chain: SDTGRPFVEMYSEIPEIIHMTEGRELVIPCRVTSPNITVTLKKFPLDTLIPDGKRIIWDSRKGFIISNATYKEIGLLTCEATVNGHLYKTNYLTHRQTNTIIDVVLSPSHGIELSVGEKLVLNCTARTELNVGIDFNWEYPSSKHQHKKLVNRDLKTQSGSEMKKFLSTLTIDGVTRSDQGLYTCAASSGLMTKKNSTFVRVHEKGGGGSDKTHTCPPCPAPEAAGGPSVFLFPPKPKDTLMISRTPEVTCVVVAVSHEDPEVKFNWYVDGVEVHNAKTKPREEQYGSTYRVVSVLTVLHQDWLNGKEYKCKVSNKALPAPIEKTISKAKGQPREPQVYTLPPSREEMTKNQVSLTCLVKGFYPSDIAVEWESNGQPENNYKTTPPVLDSDGSFFLYSKLTVDKSRWQQGNVFSCSVMHEALHNHYTQKSLSLSPGGGGGSGGGGSGGGGSEVQLVESGGGLVQPGGSLRLSCAASGFSFTSSSVSWVRQAPGKGLEWVGLIYPYNGFNYYADSVKGRFTISADTSKNTAYLQMNSLRAEDTAVYYCARNALYGSGGYYAMDYWGQGTLVTVSSGGGGSGGGGSGGGGSGGGGSDIQMTQSPSSLSASVGDRVTITCRASQDVSTAVAWYQQKPGKAPKLLIYSASFLYSGVPSRFSGSGSGTDFTLTISSLQPEDFATYYCQQSYATLPTFEQGTKVEIK
notes: Purified as a fusion protein dimer
B2: PRO238 (bispecific antibody)
heavy: EVQLVESGGGLVQPGGSLRLSCAASGFSFTSSSVSWVRQAPGKGLEWVGLIYPYNGFNYYADSVKGRFTISADTSKNTAYLQMNSLRAEDTAVYYCARNALYGSGGYYAMDYWGQGTLVTVSSASTKGPSVFPLAPSSKSTSGGTAALGCLVKDYFPEPVTVSWNSGALTSGVHTFPAVIQSSGLYSLSSVVTVPSSSLGTQTYICNVNHKPSNTKVDKRVEPKSCDKTHTCPPCPAPEAAGGPSVFLFPPKPKDTLMISRTPEVTCVVVAVSHEDPEVKFNWYVDGVEVHNAKTKPREEQYGSTYRVVSVLTVLHQDWLNGKEYKCKVSNKALPAPIEKTISKAKGQPREPQVYTLPPSREEMTKNQVSLTCLVKGFYPSDIAVEWESNGQPENNYKTTPPVLDSDGSFFLYSKLTVDKSRWQQGNVFSCSVMHEALHNHYTQKSLSLSPGGGGGSGGGGSSDTGRPFVEMYSEIPEIIHMTEGRELVIPCRVTSPNITVTLKKFPLDTLIPDGKRIIWDSRKGFIISNATYKEIGLLTCEATVNGHLYKTNYLTHRQTNTIIDVVLSPSHGIELSVGEKLVLNCTARTELNVGIDFNWEYPSSKHQHKKLVNRDLKTQSGSEMKKFLSTLTIDGVTRSDQGLYTCAASSGLMTKKNSTFVRVHEK
light: DIQMTQSPSSLSASVGDRVTITCRASQDVSTAVAWYQQKPGKAPKLLIYSASFLYSGVPSRFSGSGSGTDFTLTISSLQPEDFATYYCQQSYATLPTFEQGTKVEIKRTVAAPSVFIFPPSDEQLKSGTASVVCLLNNFYPREAKVQWKVDNALQSGNSQESVTEQDSKDSTYSLSSTLTLSKADYEKHKVYACEVTHQGLSSPVTKSFNRGEC
notes: as for B1
B3: PRO237 (bispecific antibody, human IgG1, kappa, L234A L235A, N297G)
heavy: EVQLVQSGAEVKKPGASVKVSCKASGYTFTGYYINWVRQAPGQGLEWMGIISPNQGTTGYAQKFQGRVTMTRDTSISTAYMELSSLRSEDTAVYYCARGNYDHLDYWGQGTLVTVSSASTKGPSVFPLAPSSKSTSGGTAALGCLVKDYFPEPVTVSWNSGALTSGVHTFPAVIQSSGLYSLSSVVTVPSSSLGTQTYICNVNHKPSNTKVDKRVEPKSCDKTHTCPPCPAPEAAGGPSVFLFPPKPKDTLMISRTPEVTCVVVAVSHEDPEVKFNWYVDGVEVHNAKTKPREEQYGSTYRVVSVLTVLHQDWLNGKEYKCKVSNKALPAPIEKTISKAKGQPREPQVYTLPPSREEMTKNQVSLTCLVKGFYPSDIAVEWESNGQPENNYKTTPPVLDSDGSFFLYSKLTVDKSRWQQGNVFSCSVMHEALHNHYTQKSLSLSPGGGGGSGGGGSSDTGRPFVEMYSEIPEIIHMTEGRELVIPCRVTSPNITVTLKKFPLDTLIPDGKRIIWDSRKGFIISNATYKEIGLLTCEATVNGHLYKTNYLTHRQTNTIIDVVLSPSHGIELSVGEKLVLNCTARTELNVGIDFNWEYPSSKHQHKKLVNRDLKTQSGSEMKKFLSTLTIDGVTRSDQGLYTCAASSGLMTKKNSTFVRVHEK
light: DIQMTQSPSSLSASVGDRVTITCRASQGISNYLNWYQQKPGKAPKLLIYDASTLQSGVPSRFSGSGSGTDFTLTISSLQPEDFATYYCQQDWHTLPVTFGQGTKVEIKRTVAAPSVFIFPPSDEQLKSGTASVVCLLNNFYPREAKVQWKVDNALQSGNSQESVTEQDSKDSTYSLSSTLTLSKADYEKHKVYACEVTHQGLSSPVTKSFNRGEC
notes: as for B1
B4: PRO241 (bispecific antibody, IgG1)
chain: SDTGRPFVEMYSEIPEIIHMTEGRELVIPCRVTSPNITVTLKKFPLDTLIPDGKRIIWDSRKGFIISNATYKEIGLLTCEATVNGHLYKTNYLTHRQTNTIIDVVLSPSHGIELSVGEKLVLNCTARTELNVGIDFNWEYPSSKHQHKKLVNRDLKTQSGSEMKKFLSTLTIDGVTRSDQGLYTCAASSGLMTKKNSTFVRVHEKGGGGSDKTHTCPPCPAPEAAGGPSVFLFPPKPKDTLMISRTPEVTCVVVAVSHEDPEVKFNWYVDGVEVHNAKTKPREEQYGSTYRVVSVLTVLHQDWLNGKEYKCKVSNKALPAPIEKTISKAKGQPREPQVYTLPPSREEMTKNQVSLTCLVKGFYPSDIAVEWESNGQPENNYKTTPPVLDSDGSFFLYSKLTVDKSRWQQGNVFSCSVMHEALHNHYTQKSLSLSPGGGGGSGGGGSGGGGSEVQLVQSGAEVKKPGASVKVSCKASGYTFTGYYINWVRQAPGQGLEWMGIISPNQGTTGYAQKFQGRVTMTRDTSISTAYMELSSLRSEDTAVYYCARGNYDHLDYWGQGTLVTVSSGGGGSGGGGSGGGGSGGGGSDIQMTQSPSSLSASVGDRVTITCRASQGISNYLNWYQQKPGKAPKLLIYDASTLQSGVPSRFSGSGSGTDFTLTISSLQPEDFATYYCQQDWHTLPVTFGQGTKVEIK
notes: as for B1
B5: PRO236 (bispecific antibody, human IgG1, kappa, L234A L235A, N297G)
heavy: EVQLVESGGGLVQPGGSLRLSCAASGFTFSSYWMTWVRQAPGKGLEWVSSIKIKPDGYAASVKGRFTISRDNSKNTLYLQMNSLRAEDTAVYYCARLFYQYFARMDYWGQGTLVTVSSASTKGPSVFPLAPSSKSTSGGTAALGCLVKDYFPEPVTVSWNSGALTSGVHTFPAVLQSSGLYSLSSVVTVPSSSLGTQTYICNVNHKPSNTKVDKRVEPKSCDKTHTCPPCPAPEAAGGPSVFLFPPKPKDTLMISRTPEVTCVVVAVSHEDPEVKFNWYVDGVEVHNAKTKPREEQYGSTYRVVSVLTVLHQDWLNGKEYKCKVSNKALPAPIEKTISKAKGQPREPQVYTLPPSREEMTKNQVSLTCLVKGFYPSDIAVEWESNGQPENNYKTTPPVLDSDGSFFLYSKLTVDKSRWQQGNVFSCSVMHEALHNHYTQKSLSLSPGGGGGSGGGGSSDTGRPFVEMYSEIPEIIHMTEGRELVIPCRVTSPNITVTLKKFPLDTLIPDGKRIIWDSRKGFIISNATYKEIGLLTCEATVNGHLYKTNYLTHRQTNTIIDVVLSPSHGIELSVGEKLVLNCTARTELNVGIDFNWEYPSSKHQHKKLVNRDLKTQSGSEMKKFLSTLTIDGVTRSDQGLYTCAASSGLMTKKNSTFVRVHEK
light: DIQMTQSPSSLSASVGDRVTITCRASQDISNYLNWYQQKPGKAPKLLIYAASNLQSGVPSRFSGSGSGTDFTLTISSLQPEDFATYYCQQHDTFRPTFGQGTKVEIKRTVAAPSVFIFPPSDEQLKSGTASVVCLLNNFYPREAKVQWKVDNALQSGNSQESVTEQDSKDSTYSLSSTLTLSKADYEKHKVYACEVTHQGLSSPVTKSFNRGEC
notes: as for B1

Target: T1, human VEGF165 protein (human, UniProt P15692-4 27-191)
T1 construct: Immobilised on the ELISA plate
Assay: ELISA, human VEGF165 immobilised on plate
Excerpt: Next, the anti-human immunoglobulin G antibody and the anti-horseradish peroxidase (HRP) antibody were sequentially allowed to bind.

T1 sequence (P15692 other isoform, or with tags, fused parts or gaps limits assumed): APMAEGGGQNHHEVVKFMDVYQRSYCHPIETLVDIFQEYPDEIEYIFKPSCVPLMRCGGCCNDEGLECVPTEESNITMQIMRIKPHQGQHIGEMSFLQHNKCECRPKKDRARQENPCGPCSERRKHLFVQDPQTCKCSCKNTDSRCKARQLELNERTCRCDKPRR

| binding result | Binder |
| --- | --- |
| binds | B1 |
| binds | B2 |
| binds | B3 |
| binds | B4 |
| binds | B5 |
